Tests used:
Conditions in all cases: natural protein; chains chain; remark: other sources report otherwise
[1] = biological target: T1, wild-type trigger factor, P0A850; experiment: 0.06 M GdnHCl
T1 chain: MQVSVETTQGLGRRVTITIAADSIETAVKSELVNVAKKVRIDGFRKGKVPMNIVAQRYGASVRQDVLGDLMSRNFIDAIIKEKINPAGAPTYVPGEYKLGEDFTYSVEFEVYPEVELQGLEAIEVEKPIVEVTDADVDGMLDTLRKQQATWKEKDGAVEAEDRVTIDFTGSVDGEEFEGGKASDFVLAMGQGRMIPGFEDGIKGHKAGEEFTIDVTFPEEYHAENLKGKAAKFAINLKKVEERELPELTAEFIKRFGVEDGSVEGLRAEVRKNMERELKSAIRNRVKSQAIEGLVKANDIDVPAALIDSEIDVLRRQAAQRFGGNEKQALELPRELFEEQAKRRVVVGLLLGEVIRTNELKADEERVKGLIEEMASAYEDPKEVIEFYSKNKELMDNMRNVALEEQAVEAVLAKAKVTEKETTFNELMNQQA

[2] = biological target: T1, wild-type trigger factor, P0A850; experiment: 0.26 M GdnHCl
[3] = biological target: T1, wild-type trigger factor, P0A850; experiment: native buffer, no denaturant

B1: wild-type trigger factor, P0A850 1-432 (protein)
chain: MQVSVETTQGLGRRVTITIAADSIETAVKSELVNVAKKVRIDGFRKGKVPMNIVAQRYGASVRQDVLGDLMSRNFIDAIIKEKINPAGAPTYVPGEYKLGEDFTYSVEFEVYPEVELQGLEAIEVEKPIVEVTDADVDGMLDTLRKQQATWKEKDGAVEAEDRVTIDFTGSVDGEEFEGGKASDFVLAMGQGRMIPGFEDGIKGHKAGEEFTIDVTFPEEYHAENLKGKAAKFAINLKKVEERELPELTAEFIKRFGVEDGSVEGLRAEVRKNMERELKSAIRNRVKSQAIEGLVKANDIDVPAALIDSEIDVLRRQAAQRFGGNEKQALELPRELFEEQAKRRVVVGLLLGEVIRTNELKADEERVKGLIEEMASAYEDPKEVIEFYSKNKELMDNMRNVALEEQAVEAVLAKAKVTEKETTFNELMNQQA
[1]
  Kd: 29 µM
[2]
  Kd: 76 µM
[3]
  Kd: 18.4 µM
